The supplement of paper PMC10567573

B1: PI4K2A (parent)
chain: FVKDPQGRIIAVFKPKNEEPYGHL

Variants of: B1
Test: protein stability index of a GFP-peptide fusion (GPS, HEK-293T) (PSI 1-6); higher = more stable
Details: c terminus: a fixed tail appended
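Also: lentivirally expressed fusions sorted by FACS into six bins by GFP to DsRed ratio, PSI derived from sequencing read proportions per bin multiplied by bin number.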

Variant	protein stability index
FVKDPQGRIIAVFSPKNEEPYGHL [K14S]	3.13
FVKDPQGRIIAVFWPKNEEPYGHL [K14W]	1.78
FVKDPQGRIIAVFYPKNEEPYGHL [K14Y]	2.23
FVKDPQGRIIAVFRPKNEEPYGHL [K14R]	1.18
FVKDPQGRIIAVFPPKNEEPYGHL [K14P]	2.07
FVKDPQGRIIAVFTPKNEEPYGHL [K14T]	2.17
FVKDPQGRIIAVFQPKNEEPYGHL [K14Q]	2.2
FVKDPQGRIIAVFNPKNEEPYGHL [K14N]	1.13
FVKDPQGRIIAVFMPKNEEPYGHL [K14M]	3.22
FVKDPQGRIIAVFVPKNEEPYGHL [K14V]	1.47
FVKDPQGRIIAVFKPKNEYPYGHL [E19Y]	1.73
FVKDPQGRIIAVFKPKNEGPYGHL [E19G]	1.67
FVKDPQGRIIAVFKPKNEMPYGHL [E19M]	1.81
FVKDPQGRIIAVFKPKNENPYGHL [E19N]	1.91
FVKDPQGRIIAVFKPKNESPYGHL [E19S]	1.71
FVKDPQGRIIAVFKPKNEKPYGHL [E19K]	2.58
FVKDPQGRIIAVFKPKNEPPYGHL [E19P]	1.78
FVKDPQGRIIAVFKPKNECPYGHL [E19C]	2.52
FVKDPQGRIIAVFKPKNEFPYGHL [E19F]	1.52
FVKDPQGRIIAVFKPKNEQPYGHL [E19Q]	2.03
FVKDPQGRIIAVFKPKNEAPYGHL [E19A]	1.58
FVKDPQGRIIAVFKPKNEDPYGHL [E19D]	2.16
FVKDPQGRIIAVFKPKNEHPYGHL [E19H]	2.1
FVKDPQGRIIAVFKPKNEIPYGHL [E19I]	2.62

Variant	protein stability index
FVKDPQGRIIAVFKPKNEWPYGHL [E19W]	2.91
FVKDPQGRIIAVFKPKNETPYGHL [E19T]	2.09
FVKDPQGRIIAVFKPKNEVPYGHL [E19V]	1.73
FVKDPQGRIIAVFKPKNERPYGHL [E19R]	1.34
FVKDPQGRIIAVFKPKNELPYGHL [E19L]	2.34
FVKDPQGRIIAVFKPKNEEPYGVL [H23V]	2.28
FVKDPQGRIIAVFKPKNEEPYGNL [H23N]	1.99
FVKDPQGRIIAVFKPKNEEPYGKL [H23K]	1.61
FVKDPQGRIIAVFKPKNEEPYGCL [H23C]	1.94
FVKDPQGRIIAVFKPKNEEPYGYL [H23Y]	1.78
FVKDPQGRIIAVFKPKNEEPYGLL [H23L]	2.41
FVKDPQGRIIAVFKPKNEEPYGEL [H23E]	1.62
FVKDPQGRIIAVFKPKNEEPYGPL [H23P]	2.47
FVKDPQGRIIAVFKPKNEEPYGAL [H23A]	1.65
FVKDPQGRIIAVFKPKNEEPYGTL [H23T]	1.81
FVKDPQGRIIAVFKPKNEEPYGDL [H23D]	2.39
FVKDPQGRIIAVFKPKNEEPYGRL [H23R]	1.79
FVKDPQGRIIAVFKPKNEEPYGGL [H23G]	2.6
FVKDPQGRIIAVFKPKNEEPYGFL [H23F]	1.27
FVKDPQGRIIAVFKPKNEEPYGIL [H23I]	2.38
FVKDPQGRIIAVFKPKNEEPYGSL [H23S]	1.36
FVKDPQGRIIAVFKPKNEEPYGWL [H23W]	1.83
FVKDPQGRIIAVFKPKNEEPYGQL [H23Q]	1.56
FVKDPQGRIIAVFKPKNEEPYGML [H23M]	1.87

Variant	protein stability index
FVKDPQGRIIAVFKPKQEEPYGHL [N17Q]	1.97
FVKDPQGRIIAVFKPKREEPYGHL [N17R]	1.3
FVKDPQGRIIAVFKPKVEEPYGHL [N17V]	1.66
FVKDPQGRIIAVFKPKLEEPYGHL [N17L]	2.35
FVKDPQGRIIAVFKPKIEEPYGHL [N17I]	1.63
FVKDPQGRIIAVFKPKTEEPYGHL [N17T]	1.92
FVKDPQGRIIAVFKPKYEEPYGHL [N17Y]	1.68
FVKDPQGRIIAVFKPKCEEPYGHL [N17C]	2.31
FVKDPQGRIIAVFKPKDEEPYGHL [N17D]	1.84
FVKDPQGRIIAVFKPKFEEPYGHL [N17F]	1.57
FVKDPQGRIIAVFKPKMEEPYGHL [N17M]	1.9
FVKDPQGRIIAVFKPKHEEPYGHL [N17H]	2.38
FVKDPQGRIIAVFKPKSEEPYGHL [N17S]	1.64
FVKDPQGRIIAVFKPKEEEPYGHL [N17E]	2.33
FVKDPQGRIIAVFKPKGEEPYGHL [N17G]	1.48
FVKDPQGRIIAVFKPKKEEPYGHL [N17K]	1.73
FVKDPQGRIIAVFKPKAEEPYGHL [N17A]	2.52
FVKDPQGRIIAVFKPKWEEPYGHL [N17W]	2.41
FVKDPQGRIIAVFKPKPEEPYGHL [N17P]	2
FVKDPQGRIIAVFKKKNEEPYGHL [P15K]	2.45
FVKDPQGRIIAVFKLKNEEPYGHL [P15L]	2.26
FVKDPQGRIIAVFKCKNEEPYGHL [P15C]	1.66
FVKDPQGRIIAVFKQKNEEPYGHL [P15Q]	2.07
FVKDPQGRIIAVFKRKNEEPYGHL [P15R]	2.84

Variant	protein stability index
FVKDPQGRIIAVFKWKNEEPYGHL [P15W]	1.08
FVKDPQGRIIAVFKGKNEEPYGHL [P15G]	2.5
FVKDPQGRIIAVFKVKNEEPYGHL [P15V]	1.92
FVKDPQGRIIAVFKHKNEEPYGHL [P15H]	1.58
FVKDPQGRIIAVFKAKNEEPYGHL [P15A]	2.18
FVKDPQGRIIAVFKEKNEEPYGHL [P15E]	2.37
FVKDPQGRIIAVFKYKNEEPYGHL [P15Y]	2.4
FVKDPQGRIIAVFKTKNEEPYGHL [P15T]	1.27
FVKDPQGRIIAVFKMKNEEPYGHL [P15M]	2.1
FVKDPQGRIIAVFKIKNEEPYGHL [P15I]	2.13
FVKDPQGRIIAVFKNKNEEPYGHL [P15N]	2.26
FVKDPQGRIIAVFKDKNEEPYGHL [P15D]	1.9
FVKDPQGRIIAVFKFKNEEPYGHL [P15F]	1.77
FVKDPQGRIIAVFKSKNEEPYGHL [P15S]	1.96
FVKDPQGRIIAVFKPKNEEPYGHG [L24G]	1.48
FVKDPQGRIIAVFKPKNEEPYGHE [L24E]	1.04
FVKDPQGRIIAVFKPKNEEPYGHI [L24I]	1.92
FVKDPQGRIIAVFKPKNEEPYGHH [L24H]	1.76
FVKDPQGRIIAVFKPKNEEPYGHA [L24A]	2.27
FVKDPQGRIIAVFKPKNEEPYGHC [L24C]	2.24
FVKDPQGRIIAVFKPKNEEPYGHD [L24D]	2.03
FVKDPQGRIIAVFKPKNEEPYGHF [L24F]	1.53
